These results are taken from article PMC12439145.

Common to all, as to assay: flow cytometry
What all share (conditions): apparent Kd on cells; SPR at 25 C, His-KIT on CM5 chip, 50 mM NaOH regeneration; flow cytometry with 250 nM Cy5-aptamer in binding buffer with 1 mg/ml BSA and 1 mM yeast tRNA; salt …
A general note: In flow cytometry, cells or beads pass a laser one at a time.

The target of data set [1] is KIT on GIST-430/654 cells (human (GIST-430/654)) (UniProt P10721).
Data set [2] deals with KIT on GIST-430 cells (human (GIST-430)) (UniProt P10721).
The target of data set [3] is KIT on GIST-T1 cells (human (GIST-T1)) (UniProt P10721).
Chain of KIT on GIST-T1 cells (human (GIST-T1)) (P10721 26-976): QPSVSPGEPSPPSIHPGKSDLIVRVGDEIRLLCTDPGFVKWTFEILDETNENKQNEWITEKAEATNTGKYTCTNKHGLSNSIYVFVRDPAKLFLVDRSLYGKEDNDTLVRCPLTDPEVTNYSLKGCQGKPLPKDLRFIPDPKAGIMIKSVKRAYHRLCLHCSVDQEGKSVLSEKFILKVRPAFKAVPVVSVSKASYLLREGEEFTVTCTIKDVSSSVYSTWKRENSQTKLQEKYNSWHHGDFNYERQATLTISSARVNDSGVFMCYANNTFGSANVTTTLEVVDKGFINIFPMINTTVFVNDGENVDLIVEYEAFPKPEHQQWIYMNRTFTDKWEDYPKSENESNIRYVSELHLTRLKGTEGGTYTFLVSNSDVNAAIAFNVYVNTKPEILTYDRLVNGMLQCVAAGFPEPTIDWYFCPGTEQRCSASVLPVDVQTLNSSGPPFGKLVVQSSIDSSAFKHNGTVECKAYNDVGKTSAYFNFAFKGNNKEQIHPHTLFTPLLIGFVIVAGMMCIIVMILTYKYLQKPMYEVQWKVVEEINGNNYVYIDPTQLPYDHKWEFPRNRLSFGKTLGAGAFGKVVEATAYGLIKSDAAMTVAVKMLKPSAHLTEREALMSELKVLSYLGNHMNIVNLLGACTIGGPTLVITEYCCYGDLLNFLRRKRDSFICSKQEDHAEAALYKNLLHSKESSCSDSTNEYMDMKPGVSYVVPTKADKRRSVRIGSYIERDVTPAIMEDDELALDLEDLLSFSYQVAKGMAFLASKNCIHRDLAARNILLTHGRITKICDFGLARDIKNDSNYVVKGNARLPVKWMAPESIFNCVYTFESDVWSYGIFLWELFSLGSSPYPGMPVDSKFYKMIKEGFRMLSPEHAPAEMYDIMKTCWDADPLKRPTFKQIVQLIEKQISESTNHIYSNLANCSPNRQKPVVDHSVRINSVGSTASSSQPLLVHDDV

Chain of KIT on GIST-430 cells (human (GIST-430)) (P10721 26-976): as above
Chain of KIT on GIST-430/654 cells (human (GIST-430/654)) (P10721 26-976): as above

For “ATTCAAGGGGCCGGGGCAAGGGGGGGGTACCGTGGTAGGACATAGT [KIT-d]”, the values for the Kd in data set [1], in data set [2] and in data set [3] were 109 nM, 41.6 nM and 76 nM, respectively.
